Experimental data as given in publication PMC6706427.

Molecular target: Flag-CLIC4-Y104A (dog)
Assay: co-IP; lysates of co-transfected 293T cells in RIPA buffer plus 0.5% CHAPS; anti-Flag or control antibody; Protein-G Dynabeads; 4 °C overnight; 4 washes; blots quantified with the Odyssey system, three independent repeats

percent reduction of co-precipitation against Flag-CLIC4 wild type: 40.4 % reduced
Substance: mCherry-Tsg101 (from UniProt Q99816 1-390) (natural protein)
